Measured values: article PMC7048817, “Structure of the processive human Pol δ holoenzyme” (Nature Communications, 2020)

T1: p125, catalytic subunit of human Pol δ (human, UniProt P28340 1-1107)
T1 construct: DNA polymerase delta catalytic subunit p125, human; Stood in the assay as a subunit of the Pol δ heterotetramer; source: Sf9 insect cells, coexpressed with p50, p66 and p12 (MultiBac baculovirus), purified as the heterotetramer
T1 sequence: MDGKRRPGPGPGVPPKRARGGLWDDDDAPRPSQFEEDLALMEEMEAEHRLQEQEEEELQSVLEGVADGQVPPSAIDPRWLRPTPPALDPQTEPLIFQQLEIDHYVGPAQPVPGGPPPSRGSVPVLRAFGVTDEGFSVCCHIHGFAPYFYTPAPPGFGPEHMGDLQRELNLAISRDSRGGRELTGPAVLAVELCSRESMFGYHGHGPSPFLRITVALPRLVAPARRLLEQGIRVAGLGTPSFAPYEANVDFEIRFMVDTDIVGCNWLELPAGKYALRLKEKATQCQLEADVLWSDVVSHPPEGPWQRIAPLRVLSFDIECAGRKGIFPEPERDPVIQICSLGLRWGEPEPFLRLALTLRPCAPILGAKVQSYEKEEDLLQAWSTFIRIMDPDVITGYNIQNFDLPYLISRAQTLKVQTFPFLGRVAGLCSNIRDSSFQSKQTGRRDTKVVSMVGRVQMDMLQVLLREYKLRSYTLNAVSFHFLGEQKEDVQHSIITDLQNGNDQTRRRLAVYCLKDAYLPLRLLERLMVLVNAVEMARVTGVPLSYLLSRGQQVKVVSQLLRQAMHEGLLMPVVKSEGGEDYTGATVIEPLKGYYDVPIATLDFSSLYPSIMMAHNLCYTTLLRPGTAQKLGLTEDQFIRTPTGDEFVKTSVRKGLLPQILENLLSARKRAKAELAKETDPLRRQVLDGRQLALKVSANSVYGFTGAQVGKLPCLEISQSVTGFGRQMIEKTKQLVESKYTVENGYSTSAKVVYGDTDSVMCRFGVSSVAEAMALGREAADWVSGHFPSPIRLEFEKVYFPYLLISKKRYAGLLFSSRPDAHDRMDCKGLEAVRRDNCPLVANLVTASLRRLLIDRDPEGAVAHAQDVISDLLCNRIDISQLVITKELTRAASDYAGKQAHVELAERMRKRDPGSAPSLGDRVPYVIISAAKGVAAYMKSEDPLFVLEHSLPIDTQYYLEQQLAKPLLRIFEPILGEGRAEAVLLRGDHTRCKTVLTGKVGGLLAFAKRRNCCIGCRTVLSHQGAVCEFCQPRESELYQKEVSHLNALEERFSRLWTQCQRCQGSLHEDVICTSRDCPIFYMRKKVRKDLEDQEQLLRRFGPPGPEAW

B1: p66, regulatory subunit of human Pol δ (natural protein)
chain: ADQLYLENIDEFVTDQNKIVTYKWLSYTLGVHVNQAKQMLYDYVERKRKENSGAQLHVTYLVSGSLIQNGHSCHKVAVVREDKLEAVKSKLAVTASIHVYSIQKAMLKDSGPLFNTDYDILKSNLQNCSKFSAIQCAAAVPRAPAESSSSSKKFEQSHLHMSSETQANNELTTNGHGPPASKQVSQQPKGIMGMFASKAAAKTQETNKETKTEAKEVTNASAAGNKAPGKGNMMSNFFGKAAMNKFKVNLDSEQAVKEEKIVEQPTVSVTEPKLATPAGLKKSSKKAEPVKVLQKEKKRGKRVALSDDETKETENMRKKRRRIKLPESDSSEDEVFPDSPGAYEAESPSPPPPPSPPLEPVPKTEPEPPSVKSSSGENKRKRKRVLKSKTYLDGEGCIVTEKVYESESCTDSEEELNMKTSSVHRPPAMTVKKEPREERKGPKKGTAALGKANRQVSITGFFQRK
notes: DNA polymerase delta subunit p66, human; last visible residue in the map is Ala144; Stood in the assay as a subunit of the Pol δ heterotetramer; also called p66N (its visible N-terminal part); source: Sf9 insect cells, coexpressed with p125, p50 and p12 (MultiBac baculovirus), purified as the heterotetramer
B2: p12, regulatory subunit of human Pol δ (natural protein)
chain: GRKRLITDSYPVVKRREGPAGHSKGELAPELGEEPQPRDEEEAELELLRQFDLAWQYGPCTGITRLQRWCRAKQMGLEPPPEVWQVLKTHPGDPRFQCSLWHLYPL
notes: Stood in the assay as a subunit of the Pol δ heterotetramer; source: Sf9 insect cells, coexpressed with p125, p50 and p66 (MultiBac baculovirus), purified as the heterotetramer
B3: DLDV-PCNA (PCNA D120A, L121A, D122A, V123E) (natural protein, human, UniProt P12004 1-261, looked up)
chain: MFEARLVQGSILKKVLEALKDLINEACWDISSSGVNLQSMDSSHVSLVQLTLRSEGFDTYRCDRNLAMGVNLTSMSKILKCAGNEDIITLRAEDNADTLALVFEAPNQEKVSDYEMKLMAAAEEQLGIPEQEYSCVVKMPSGEFARICRDLSHIGDAVVISCAKDGVKFSASGELGNGNIKLSQTSNVDKEEEAVTIEMNEPVQLTFALRYLNFFTKATPLSSTVTLSMSADVPLVVEYKIADMGHLKYYLAPKIEDEEGS
notes: proliferating cell nuclear antigen, human, full length, with D120A, L121A, D122A and V123E; source: E. coli BL21 (DE3), purified (HisTrap, HiTrap Q, Superdex 200)

Key:
[1] = target: T2, p50, regulatory subunit of human Pol δ (human, UniProt P49005 1-469); assay: cryo-EM structure; Pol δ–DNA–PCNA–dTTP complex with 25/38 primer/template DNA (3' dideoxy terminator); 25 mM HEPES-KOH pH 7.5, 100 mM potassium acetate, 10 mM calcium chloride, 0.02% NP-40, 0.4 mM biotin, 1 mM DTT; 4.1 Å map from the sample frozen after mixing (conformers at 4.3, 4.9, 8.1 Å), 3.0 Å map from the gel-filtered sample in which FEN1 is invisible; conditions: both partners purified
T2 construct: DNA polymerase delta subunit p50 (B-subunit), human; Stood in the assay as a subunit of the Pol δ heterotetramer; also called B-subunit; source: Sf9 insect cells, coexpressed with p125, p66 and p12 (MultiBac baculovirus), purified as the heterotetramer
T2 sequence (P49005 whole entry, stated change not applied): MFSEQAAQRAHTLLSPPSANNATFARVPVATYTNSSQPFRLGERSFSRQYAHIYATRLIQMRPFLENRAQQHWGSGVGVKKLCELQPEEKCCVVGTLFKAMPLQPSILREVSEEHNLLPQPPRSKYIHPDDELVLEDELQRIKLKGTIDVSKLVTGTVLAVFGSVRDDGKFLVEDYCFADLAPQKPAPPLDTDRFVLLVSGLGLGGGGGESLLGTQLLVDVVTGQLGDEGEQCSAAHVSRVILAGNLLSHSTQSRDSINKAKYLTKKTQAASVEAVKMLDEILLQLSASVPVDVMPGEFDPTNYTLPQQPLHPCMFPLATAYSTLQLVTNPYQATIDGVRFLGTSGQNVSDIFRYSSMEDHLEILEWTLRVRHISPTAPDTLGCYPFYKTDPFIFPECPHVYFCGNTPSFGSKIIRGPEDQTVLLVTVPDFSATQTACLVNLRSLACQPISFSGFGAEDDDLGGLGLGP

[2] = target: T1, p125, catalytic subunit of human Pol δ; assay: as above; conditions: both partners purified
[3] = target: the molecule itself; assay: SEC; HiLoad 16/600 Superdex 200 pg in PCNA storage buffer; 2 mg of each PCNA form in 250 μL, 1 mL/min; markers carbonic anhydrase (27 kDa) and conalbumin (75 kDa); monomers to trimer

Binder	binding result [1]	binding result [2]	stoichiometry N [3]
B1	binds		
B2	binds	binds	
B3			3
